Changes are numbered by the printed parent chain. One block for each binder: values may come before it.
Experiments:
[1] = target: T1, human Adhesion G protein-coupled receptor E2 (ADGRE2) (human, UniProt Q9UHX3 24-823); assay: flow cytometry, scFv titration on EL4 cells overexpressing ADGRE2
T1 construct: No signal peptide limits are stated; also called EMR2; CD312
T1 sequence: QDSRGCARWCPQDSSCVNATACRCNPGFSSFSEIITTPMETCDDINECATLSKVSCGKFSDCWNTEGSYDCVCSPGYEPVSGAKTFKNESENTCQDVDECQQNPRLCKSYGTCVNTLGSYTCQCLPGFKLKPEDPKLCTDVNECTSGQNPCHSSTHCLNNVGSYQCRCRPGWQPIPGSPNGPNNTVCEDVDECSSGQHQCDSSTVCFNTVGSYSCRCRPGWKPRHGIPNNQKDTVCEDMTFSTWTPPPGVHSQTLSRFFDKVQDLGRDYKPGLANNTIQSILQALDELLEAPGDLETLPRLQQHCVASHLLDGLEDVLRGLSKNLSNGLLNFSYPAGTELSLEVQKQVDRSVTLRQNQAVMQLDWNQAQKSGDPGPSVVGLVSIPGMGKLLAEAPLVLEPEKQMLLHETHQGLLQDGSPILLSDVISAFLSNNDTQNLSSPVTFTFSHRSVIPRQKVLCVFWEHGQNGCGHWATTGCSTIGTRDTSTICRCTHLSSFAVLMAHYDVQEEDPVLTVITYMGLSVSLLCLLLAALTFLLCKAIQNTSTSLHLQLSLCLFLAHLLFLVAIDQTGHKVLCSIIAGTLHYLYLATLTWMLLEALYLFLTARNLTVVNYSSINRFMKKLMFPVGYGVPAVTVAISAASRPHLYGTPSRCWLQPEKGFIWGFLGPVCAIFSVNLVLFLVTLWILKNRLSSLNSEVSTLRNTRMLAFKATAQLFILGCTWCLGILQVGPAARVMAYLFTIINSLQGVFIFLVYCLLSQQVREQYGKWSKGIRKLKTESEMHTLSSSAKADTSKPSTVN
Procedure: This example illustrates the on-cell binding for the anti-ADGRE2 scFvs as measured by flow cytometry. The on-cell binding for the anti-ADGRE2 scFvs was assessed by flow cytometry on the E4 cells overexpressing ADGRE2. Each of the scFvs were tested for binding to ADGRE2 and compared to the Reference 1 mAb. Briefly, 100,000 cells per well, were plated in 96 well V bottom plate, scFvs were diluted to 200 nMscFv then 1:4 serially down to 0.01 nM. A dose dependent titration of the scFvs validated recombinant scFvs folding and binding to ADGRE2. EC₅₀ affinities were compared in order to better interpret any differences seen in-vivo that might be caused by variations in affinities resulting from the humanization process Data was analyzed using Prism software, using a four parameter regression. The approximate EC₅₀ values were determined using equation: Y=Bottom+(Top−Bottom)/(1+10\hat{ }((Log EC₅₀−X)*HillSlope)) where the fitted parameters are defined as follows: Bottom, the lower plateau describing minimum binding achievable; Top, the upper plateau describing the maximum binding achievable; Log EC50, the inflection point of the dose response curve also known as the concentration producing a half-maximal response; and Hill-Slope, the slope of the dose response curve.

[2] = target: T2, ADGRE1 (human, UniProt Q14246 21-886); assay: cell microarray screen on HEK293 cells overexpressing human membrane proteins
T2 construct: whole, on cells
T2 sequence (looked up): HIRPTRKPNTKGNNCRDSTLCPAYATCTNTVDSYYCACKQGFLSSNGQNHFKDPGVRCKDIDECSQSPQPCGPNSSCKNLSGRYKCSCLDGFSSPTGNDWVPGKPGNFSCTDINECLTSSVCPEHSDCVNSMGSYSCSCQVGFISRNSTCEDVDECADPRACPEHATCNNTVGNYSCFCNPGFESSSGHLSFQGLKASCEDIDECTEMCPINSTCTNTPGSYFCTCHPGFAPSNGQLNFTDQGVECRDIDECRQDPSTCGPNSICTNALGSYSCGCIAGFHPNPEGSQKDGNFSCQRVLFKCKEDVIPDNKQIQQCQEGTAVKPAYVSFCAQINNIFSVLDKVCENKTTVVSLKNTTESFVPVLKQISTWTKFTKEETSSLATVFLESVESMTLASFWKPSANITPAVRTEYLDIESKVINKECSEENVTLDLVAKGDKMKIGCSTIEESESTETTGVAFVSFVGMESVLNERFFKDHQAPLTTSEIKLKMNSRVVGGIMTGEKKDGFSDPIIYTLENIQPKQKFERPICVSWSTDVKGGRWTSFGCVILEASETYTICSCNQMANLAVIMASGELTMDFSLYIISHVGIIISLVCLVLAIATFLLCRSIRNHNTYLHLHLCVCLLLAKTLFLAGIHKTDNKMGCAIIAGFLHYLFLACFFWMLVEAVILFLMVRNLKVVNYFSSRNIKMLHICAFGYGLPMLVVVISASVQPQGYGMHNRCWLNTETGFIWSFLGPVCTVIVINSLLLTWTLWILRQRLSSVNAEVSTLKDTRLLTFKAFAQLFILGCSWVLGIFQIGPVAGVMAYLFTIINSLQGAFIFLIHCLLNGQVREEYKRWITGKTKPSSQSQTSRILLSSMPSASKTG
Procedure: (§1) The off-target binding interactions of ADGRE2 scFv (ADGRE2-A) and CLEC12A scFv (CLEC12A-A) to human plasma membrane proteins were carried out in a 4-phase approach: (1) pre-screening to determine the optimal concentrations of purified recombinant ADGRE2 scFv-Fc and CLEC12A scFv-Fc test proteins for the screening; (2) screening for binding of the test proteins against fixed HEK293 cells overexpressing 5,474 full-length human plasma membrane proteins and cell surface tethered human secreted proteins and 371 human cell surface heterodimers, which identified library hits; (3) confirmatory/specific screens using fixed-cell and live-cell microarrays; (4) flow cytometry-based follow-on study to investigate further identified test protein-specific interactions on live cells; and (5) cell-to-cell binding assays to confirm positive hits. The table below summarizes the off-binding data for ADGRE2 scFv and CLEC12A scFv.

[3] = target: T3, ADGRE3 (human, UniProt Q9BY15 22-652); assay: as above
T3 construct: whole, on cells
T3 sequence (looked up): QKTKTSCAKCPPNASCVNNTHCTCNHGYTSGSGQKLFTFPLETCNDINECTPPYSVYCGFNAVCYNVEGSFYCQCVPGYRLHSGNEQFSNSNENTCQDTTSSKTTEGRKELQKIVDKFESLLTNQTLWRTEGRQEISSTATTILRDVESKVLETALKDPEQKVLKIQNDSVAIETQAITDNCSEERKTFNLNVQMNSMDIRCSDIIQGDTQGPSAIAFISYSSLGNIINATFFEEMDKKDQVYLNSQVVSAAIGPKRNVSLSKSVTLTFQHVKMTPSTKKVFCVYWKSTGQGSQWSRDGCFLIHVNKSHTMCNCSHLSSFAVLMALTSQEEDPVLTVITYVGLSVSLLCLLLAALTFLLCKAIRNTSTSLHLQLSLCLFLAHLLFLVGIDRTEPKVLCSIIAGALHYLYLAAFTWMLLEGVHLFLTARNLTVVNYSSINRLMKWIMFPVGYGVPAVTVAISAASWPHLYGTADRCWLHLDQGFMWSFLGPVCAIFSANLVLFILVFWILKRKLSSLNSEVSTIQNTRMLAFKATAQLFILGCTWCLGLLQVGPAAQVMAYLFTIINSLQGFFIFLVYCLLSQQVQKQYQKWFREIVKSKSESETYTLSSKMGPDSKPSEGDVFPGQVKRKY
Procedure: as §1

[4] = target: T4, ADGRE5 (human, UniProt P48960 21-835); assay: as above
T4 construct: whole, on cells
T4 sequence (looked up): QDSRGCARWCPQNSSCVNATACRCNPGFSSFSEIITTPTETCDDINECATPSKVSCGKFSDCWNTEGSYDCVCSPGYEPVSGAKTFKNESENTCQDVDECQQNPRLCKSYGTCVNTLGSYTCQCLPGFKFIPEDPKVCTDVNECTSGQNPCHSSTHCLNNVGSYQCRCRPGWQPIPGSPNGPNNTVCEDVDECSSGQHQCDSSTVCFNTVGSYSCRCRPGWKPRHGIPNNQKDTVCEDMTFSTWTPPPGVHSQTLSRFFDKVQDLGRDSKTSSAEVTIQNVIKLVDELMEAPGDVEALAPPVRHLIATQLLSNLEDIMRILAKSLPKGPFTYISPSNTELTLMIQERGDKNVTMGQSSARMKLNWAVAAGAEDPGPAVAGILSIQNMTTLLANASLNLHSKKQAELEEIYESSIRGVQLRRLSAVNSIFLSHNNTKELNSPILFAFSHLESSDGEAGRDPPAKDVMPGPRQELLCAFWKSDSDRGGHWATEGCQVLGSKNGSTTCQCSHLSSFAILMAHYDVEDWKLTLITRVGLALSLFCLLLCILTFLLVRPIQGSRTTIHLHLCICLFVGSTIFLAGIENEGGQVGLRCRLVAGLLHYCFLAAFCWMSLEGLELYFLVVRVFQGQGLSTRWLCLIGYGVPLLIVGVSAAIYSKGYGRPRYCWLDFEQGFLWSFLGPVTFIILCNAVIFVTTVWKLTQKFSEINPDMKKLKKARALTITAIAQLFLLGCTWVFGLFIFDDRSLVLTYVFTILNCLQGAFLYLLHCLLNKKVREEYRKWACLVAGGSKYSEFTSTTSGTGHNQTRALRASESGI
Procedure: as §1

- binding result [2]: no binding
- binding result [3]: no binding
- binding result [4]: no binding
B3: ADGRE2 scFv-Fc (purified recombinant ADGRE2-A scFv fused to Fc) (Fc fusion)
chain: QVQLQQSGAEVAKPGASVKLSCKASGYTFTNYWMQWIKQAPGQGLEWIGAVYPGDGDTRHTQKFKGKATLTADKSTSTAYMEVSSLRSEDTAVYYCARGFTAYGMDYWGQGTTVTVSSGGGGSGGGGSGGGGSEIVLTQSPATMSASPGERVTMSCSASSSVSYMHWYQQKSGQSPKRWIYDTSKLASGVPARFSGSGSGTDYTFTISSMEPEDFATYYCQQWSSNPLTFGGGTKLEIK
notes: also called ADGRE2 scFv (ADGRE2-A); not shown: Fc part (and any linker) of the scFv-Fc is not described

- EC50 [1]: 16.4 nM
B4: ADGRE2-F scFv (scFv)
scFv: QVQLQQSGAEVKKPGASVKLSCKASGYTFTNYWMQWIRQAPGQGLEWIGAVYPGDGDTRYTQKFQGRATLTADTSTSTAYMEVSSLRSEDTAVYYCARGFTAYGMDYWGQGTTVTVSSGGGGSGGGGSGGGGSEIVLTQSPATLSASPGERVTMSCSASSSVSYMHWYQQKPGLAPRRWIYDTSKLASGVPDRFSGSGSGTDYTFTISRMEPEDFATYYCQQWSSNPLTFGGGTKLEIK
notes: Recombinant humanized scFv; Any tag is not described

- EC50 [1]: 10.6 nM
B7: ADGRE2-E scFv (scFv)
scFv: QVQLQQSGAEVKKPGASVKVSCKASGYTFTNYWMQWVRQAPGQGLEWIGAVYPGDGDTRHTQKFKGRVTMTADKSTSTVYMELSSLRSEDTAVYYCARGFTAYGMDYWGQGTLVTVSSASTGGGGSGGGGSGGGGSQIVLTQSPATLSLSPGERATLTCSASSSVSYMHWYQQKPGLSPKRWIYDTSKLASGVPDRFSGSGSGTDYTFTIRRLEPEDFATYYCQQWSSNPLTFGQGTKVEIK
notes: as for B4

The remaining lines, values behind:

B1: ADGRE2-D scFv (scFv)
scFv: QVQLQQSGAEVKKPGASVKVSCKASGYTFTNYWMQWVRQAPGQGLEWMGAVYPGDGDTRHTQKFKGRVTMTRDTSTSTVYMELSSLRSEDTAVYYCARGFTAYGMDYWGQGTLVTVSSASTGGGGSGGGGSGGGGSEIVLTQSPATLSLSPGERATLSCSASSSVSYMHWYQQKPGLAPRLLIYDTSKLASGIPDRFSGSGSGTDFTLTISRLEPEDFAVYYCQQWSSNPLTFGQGTKVEIK
notes: as for B4
- EC50 [1]: 16.4 nM

B2: ADGRE2-C scFv (scFv)
scFv: B4 scFv with I37V, A79V, L144M, P172S, A175S, R177K
notes: as for B4
- EC50 [1]: 53.2 nM

B5: ADGRE2-A scFv (scFv)
scFv: B3 chain
notes: as for B4
- EC50 [1]: 93.8 nM

B6: ADGRE2-B scFv (scFv)
scFv: B4 scFv with T76I, S85R, E89D, L144M, P172S, A175S, R177K
notes: as for B4
- EC50 [1]: 55.3 nM

— patent publication US20220363775A1 (Memorial Sloan Kettering, published 2022)
